From the supplement of paper PMC9170038

Test system: MS2 coat protein
Test: apparent KD of MS2 coat protein; designed switch direction (-1 OFF switch, 1 ON switch): -1; higher = weaker reporter binding
Procedure, shortened: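 Stalled E. coli RNA polymerase transcribed designed RNA switches on Illumina chips, which were then titrated with SNAP-549-labelled MS2 coat protein, doubling from 0.7 or 1.5 nM to 3 µM. Steps lasted from 0.8–1.5 h at the lowest concentration to 10–20 min at the highest. The apparent KD is each design's median over clusters of curve-fitted normalised fluorescence.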

[1] = Eterna round: R95, input ligand: FMN 200 uM
[2] = Eterna round: R95, input ligand: microRNA oligo, concentration not stated
[3] = Eterna round: R95, input ligand: none
[4] = input ligand: microRNA oligo, concentration not stated

Row | Sequence | apparent KD of MS2 coat protein (input ligand: FMN 200 uM) [nM] | apparent KD of MS2 coat protein (input ligand: none) [nM] | apparent KD of MS2 coat protein [1] [nM] | apparent KD of MS2 coat protein [2] [nM] | apparent KD of MS2 coat protein [3] [nM] | apparent KD of MS2 coat protein [4] [nM]
1 | GUUUCACAUGAGGAUCACCCAUGUGAGGAUAUGGACUUUUUGGCAAUAGUCGUUGGGUUCAGAAGGCGCGUGAU [JR_Exc1_Sub006] (Eterna round: R97, puzzle: Exclusion 1) | 45.2 | 49.4 | – | – | – | –
2 | UAUGGUUAAGUCAGGAUAUGCUCAUAGAAGUCUGUGCAGAAGGGACAUGAGGAUCACCCAUGUAUGGUAGUGUU [Ex4 #61] (Eterna round: R97, puzzle: Brourd's mod of Exclusion 4) | 293 | 460 | – | – | – | –
3 | AUCGUGAAGAAGGAUAUGGGCCCGGUAAAACGACUAGAAGGUCUGACAUGAGGAUCACCCAUGUGAUACCAAAA [Veve] (puzzle: Exclusion 6) | – | – | 34.1 | 42.9 | 35.3 | –
4 | GGUUUGCAGCAGGAUAUCCAUCCGCGGUAUGGUGGAGAAGGGCUGACAUGAGGAUCACCCAUGUGCGUCCUAGG [salish99_ex6_r4_017] (Eterna round: R97, puzzle: Exclusion 6) | 58.6 | 27.6 | – | – | – | –
5 | UCUACGUCAGGAUAUACAAGCGGUGCUCUGAUGCUGUCCAGACAUGAGGAUCACCCAUGUAGAAGGGACGACAA [Eternabot (L1) Solution 68] (Eterna round: R97, puzzle: Exclusion 2) | 42.6 | 365 | – | – | – | –
6 | UGGAAGUGAGGAUAUCCAAUAUAUGACAUGAGGAUCACCCAUGUUUCCACUCGUACCUCCGGAGAAGGCACAAGGU [Ex5 #56] (Eterna round: R97, puzzle: Exclusion 5) | 56.5 | 57.3 | – | – | – | –
7 | GUCAGACGAGGAUAUGAUAAUUAAUACAUGAGGAUCACCCAUGUAAUACUGAUCCAUGGAUCAGAAGGCGUCUGAC [E5/4-A4] (Eterna round: R97, puzzle: Exclusion 5) | 42.7 | 17.6 | – | – | – | –
8 | AUUGCGCGAGGAUAUACGAGAGACCUGUGUCAGAACCAUGGACAUGAGGAUCACCCAUGUAGAAGGCGUGCUCU [Eternabot (L1) Solution 73] (Eterna round: R97, puzzle: Exclusion 2) | 78.6 | 1200 | – | – | – | –
9 | CAGUACUGAGGAUAUACAUGAGGAUCACCCAUGUGAACCAGCUAGGAAACUAGCAAAAGUAGAAGGCAGUACUG [828 mod 2 m7] (Eterna round: R97, puzzle: Exclusion 3) | 2260 | 92.5 | – | – | – | –
10 | AGGGAGCGAGGAUAUACAGAGUAGGAAACCACUCCCUCAGUACAUGAGGAUCACCCAUGUAGAAGGCGCCCGAA [EX2 A.8] (Eterna round: R97, puzzle: Exclusion 2) | 39.2 | 31.5 | – | – | – | –
11 | CUAGCUUCGGCUAGUACAAGCUUUUUGCUCGUCUUAUUAACAUGAGGAUCACCCAUGUUAAUGAGACCUCAUGUAUU [Sensor v3 - turn-off variant 2 - 9] (Eterna round: R96, puzzle: Sensor v3, turn-off variant 2) | 11.5 | 13.6 | – | – | – | 12.2
12 | GAGGAACAUGAGGAUCACCCAUGUGAGGAUAUGCAUAGUGAGGUAGUAGACGUUGAAUGCAGAAGGUACACUGA [JR_Exclu1_Sub078] (puzzle: Exclusion 1) | – | – | – | 35.7 | – | –
13 | AUGCGUGGCUAGGAUAUUGAGGAAUUUAGCCAGCAAGAAGGAGCCACAUGAGGAUCACCCAUGUGGUGAACCUC [jl-ex6-4.61 ViennaUCT mod] (Eterna round: R97, puzzle: Exclusion 6) | 13.2 | 30.6 | – | – | – | –
14 | AAAGAAGAAGUCAGGAUAUAGUUAAAGAAGACCGACUAGAAGGGACAUGAGGAUCACCCAUGUGUCAGUGGGUA [Lasoaned] (puzzle: Brourd's mod of Exclusion 4) | – | – | 279 | 77.6 | 133 | –
15 | CGGGAGGGACAAGCUUUUUGCACGUCUGUUAUUGAUGCUACAUGAGGAUCACCCAUGUUUAAGAUGUGUGAGGAUGG [JR_SV3TOV2_Sub053] (puzzle: Sensor v3, turn-off variant 2) | – | – | 26.2 | 57.6 | 31.3 | –
16 | ACCUUACAUGAGGAUCACCCAUGUCAGGAUAUCUCGGACGGCUGAAAACCAACCGUCCAGAGAAGGGACGAGGA [Solamaso] (puzzle: Exclusion 1) | – | – | – | 12.5 | – | –
17 | GCAUGGCGAGGAUAUACAUGAGGAUCACCCAUGUGAGAAUAAUAAGUGAGGAAGAAAAGUAGAAGGCGCUGUGG [Mat - Exclusion 3 - Mod of Salish D64] (puzzle: Exclusion 3) | – | – | 250 | 70.1 | 97.8 | –

Row | Sequence | apparent KD of MS2 coat protein (input ligand: FMN 200 uM) [nM] | apparent KD of MS2 coat protein (input ligand: none) [nM] | apparent KD of MS2 coat protein [1] [nM] | apparent KD of MS2 coat protein [2] [nM] | apparent KD of MS2 coat protein [3] [nM] | apparent KD of MS2 coat protein [4] [nM]
18 | GUGUAACAUGAGGAUCACCCAUGUCAGGAUAUGCGAAUUUCAUCAAAAGAUGAAAUUUGCAGAAGGGACUGUAC [Omei Ex1 A24] (Eterna round: R97, puzzle: Exclusion 1) | 99.2 | 60.9 | – | – | – | –
19 | CCCGCGGGCGCAGGAUAUACAUGAGGAUCACCCAUGUGCCGCGCAAGCGGCAGAGCGGACAACGGGUAGAAGGGCGCCCGCGGG [first try] (Eterna round: R96, puzzle: Exclusion NG 2) | 875 | 492 | – | – | – | 202
20 | UCAGGUGCAGGAUAUACAUGAGGAUCACCCAUGUGAUUAGCAGUCCUCGGACUGCAAUGUAGAAGGGCACCUGA [E3/2-D2] (Eterna round: R97, puzzle: Exclusion 3) | 763 | 346 | – | – | – | –
21 | CCUUAACAUGAGGAUCACCCAUGUGAGGAUAUGAUGCAGCAGUGGUCUACGCUGUGCAUCAGAAGGUACAUGGU (Eterna round: R96, puzzle: Exclusion 1) | 291 | 44.5 | – | – | – | 35.9
22 | GUAACAACUAGAGGAUAUCAGCACGAUUAGUGCUGAGAAGGCUAGAGUUACAUGAGGAUCACCCAUGUCUAGAGAUCAUUAAUU [ENG1/13-A1] (Eterna round: R96, puzzle: Exclusion NG 1) | 155 | 79.7 | – | – | – | 53.2
23 | ACAUGUCAUUGAGGAUAUUGCACACAUGAGGAUCACCCAUGUAUACGGAUGCUCUUACGUGAGUUCGAGAAGGCGAUGUACAUU [Ex NG2 #89] (Eterna round: R96, puzzle: Exclusion NG 2) | 290 | 160 | – | – | – | 121
24 | UACAUGAGGAUCACCCAUGUUUUGUCGUGUAUGGUAUUUAUCUAGGAUAUCAAGUUAUUUGUUUAUGAGAAGGAGAAUAUUAAU [JMF's solution 33] (Eterna round: R96, puzzle: Exclusion NG 3) | 37.1 | 37.1 | – | – | – | 26.1
25 | GACCGGACGUGGUCAGGUAACAUGAGGAUCACCCAUGUAGGUCUAGGAACAAGCUUUUUGAAAGCUCGUCUUAUAAA [JR_SV3TOV1_Sub058] (puzzle: Sensor v3, turn-off variant 1) | – | – | 56.7 | 33.6 | 69.3 | –
26 | UCGGCGCGAGGAUAUGCGGCUGGUGCUUCGGGCCCUGGCGUACAUGAGGAUCACCCAUGUAGAAGGCGCGCCGC [Apr-15 SS2-41] (puzzle: Exclusion 2) | – | – | – | 10.2 | – | –
27 | UGACCUAAAGGAUAUACAUGAGGAUCACCCAUGUCUUCAGCUGCCGUAAGGGAUCUUAGUAGAAGGUUAGGUCG [Eternabot (L1) Solution 43] (Eterna round: R97, puzzle: Exclusion 3) | 1360 | 84 | – | – | – | –
28 | GCUAGAGCAGGAUAUCUAGAUCCACACAUGAGGAUCACCCAUGUACGGUCGAAAGACCGAAGAGAAGGGCUCUAGC [Omei Ex5 E12] (Eterna round: R97, puzzle: Exclusion 5) | 98.5 | 67 | – | – | – | –
29 | ACUUACUGAGGAUAUACUUAGAUUUACAUGAGGAUCACCCAUGUUCCUCUAUGUAUAUAUGUAGAAGGCAGAAGUU [Mat - Exclusion 5 - JL Mod - D49] (Eterna round: R97, puzzle: Exclusion 5) | 216 | 38.1 | – | – | – | –
30 | GCCUUAUGAGUCAGGAUAUACAAUAAAAUAAUUAAGUAGAAGGGACAUGAGGAUCACCCAUGUACAUUACAUUG [alecazam28] (Eterna round: R97, puzzle: Brourd's mod of Exclusion 4) | 82.4 | 21.6 | – | – | – | –
31 | AAGAAGAAACAAGCUUUUUGCACGUCAGGUAGUGACGCAACAUGAGGAUCACCCAUGUAUAGGGUGGGAAAGGAUAG [JR_SV3TOV2_Sub048] (puzzle: Sensor v3, turn-off variant 2) | – | – | 34 | 30.9 | 303 | –
32 | CUUGUUUAUGUAGGAUAUGCCUGGCGUGCCUUUGCAGAAGGACAUGAGGAUCACCCAUGUAUUGCGGUCUGCGUUCAGAUCGCA [salish99_ExNG1_r4_045] (Eterna round: R96, puzzle: Exclusion NG 1) | 34.6 | 34.5 | – | – | – | 23.2
33 | CAAAAUGCUCGAGGAUAUCCGAGGAGCAGAAAAGGAGAAGGCGAGGAUAAAGAACAUGAGGAUCACCCAUGUGAACCUCGUAAU [Lereores] (Eterna round: R96, puzzle: Exclusion NG 1) | 16.9 | 16.1 | – | – | – | 14.6
34 | AUGCGUGGCUAGGAUAUCGAGGAAUUUAGCCAGCGAGAAGGAGCCACAUGAGGAUCACCCAUGUGGUGAACCUC [jl-ex6-4.62 ViennaUCT mod] (Eterna round: R97, puzzle: Exclusion 6) | 41.1 | 10.2 | – | – | – | –
